Article PMC7105497

Biological target: human EWI-2 wild type with FLAG-tag (FSEC assay) (human) (UniProt Q969P0)
Assay: SEC; fluorescence-detection size-exclusion chromatography (FSEC): GFP-tagged CD9 and FLAG-tagged EWI-2 co-expressed in HEK293T cells, solubilised in 1% digitonin, supernatant run on Superose 6 Increase in 10 mM HEPES pH 7.0, 150 mM NaCl, 0.1% digitonin; GFP fluorescence monitored

Chain of UniProt Q969P0 (Q969P0 28-613): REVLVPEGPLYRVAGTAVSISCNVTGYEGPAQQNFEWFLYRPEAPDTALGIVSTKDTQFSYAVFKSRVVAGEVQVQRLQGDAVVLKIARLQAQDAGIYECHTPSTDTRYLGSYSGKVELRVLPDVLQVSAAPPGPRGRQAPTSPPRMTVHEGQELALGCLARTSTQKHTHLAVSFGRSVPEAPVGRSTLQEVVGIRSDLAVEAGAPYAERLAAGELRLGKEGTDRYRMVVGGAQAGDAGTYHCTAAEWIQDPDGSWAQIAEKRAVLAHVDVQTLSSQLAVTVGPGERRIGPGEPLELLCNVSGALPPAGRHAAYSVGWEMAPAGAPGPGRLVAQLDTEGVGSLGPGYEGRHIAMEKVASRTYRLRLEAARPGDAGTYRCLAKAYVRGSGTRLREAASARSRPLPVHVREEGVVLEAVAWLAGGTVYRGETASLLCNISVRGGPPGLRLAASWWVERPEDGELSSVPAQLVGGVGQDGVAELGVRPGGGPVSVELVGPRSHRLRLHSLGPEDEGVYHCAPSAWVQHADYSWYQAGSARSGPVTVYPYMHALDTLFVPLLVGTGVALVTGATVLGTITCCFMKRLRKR

Substance: CD9-CD53LEL (CD9 with its LEL region exchanged with that of CD53)
- stoichiometry N (EWI-2 per CD9): 2
